Data taken from publication PMC6650273 (Nature cell biology, 2019).

Target: FLAG-Tor (Dictyostelium discoideum, UniProt Q86C65 1-2380)
Experiment: pull-down

Chain of FLAG-Tor (Q86C65 whole entry): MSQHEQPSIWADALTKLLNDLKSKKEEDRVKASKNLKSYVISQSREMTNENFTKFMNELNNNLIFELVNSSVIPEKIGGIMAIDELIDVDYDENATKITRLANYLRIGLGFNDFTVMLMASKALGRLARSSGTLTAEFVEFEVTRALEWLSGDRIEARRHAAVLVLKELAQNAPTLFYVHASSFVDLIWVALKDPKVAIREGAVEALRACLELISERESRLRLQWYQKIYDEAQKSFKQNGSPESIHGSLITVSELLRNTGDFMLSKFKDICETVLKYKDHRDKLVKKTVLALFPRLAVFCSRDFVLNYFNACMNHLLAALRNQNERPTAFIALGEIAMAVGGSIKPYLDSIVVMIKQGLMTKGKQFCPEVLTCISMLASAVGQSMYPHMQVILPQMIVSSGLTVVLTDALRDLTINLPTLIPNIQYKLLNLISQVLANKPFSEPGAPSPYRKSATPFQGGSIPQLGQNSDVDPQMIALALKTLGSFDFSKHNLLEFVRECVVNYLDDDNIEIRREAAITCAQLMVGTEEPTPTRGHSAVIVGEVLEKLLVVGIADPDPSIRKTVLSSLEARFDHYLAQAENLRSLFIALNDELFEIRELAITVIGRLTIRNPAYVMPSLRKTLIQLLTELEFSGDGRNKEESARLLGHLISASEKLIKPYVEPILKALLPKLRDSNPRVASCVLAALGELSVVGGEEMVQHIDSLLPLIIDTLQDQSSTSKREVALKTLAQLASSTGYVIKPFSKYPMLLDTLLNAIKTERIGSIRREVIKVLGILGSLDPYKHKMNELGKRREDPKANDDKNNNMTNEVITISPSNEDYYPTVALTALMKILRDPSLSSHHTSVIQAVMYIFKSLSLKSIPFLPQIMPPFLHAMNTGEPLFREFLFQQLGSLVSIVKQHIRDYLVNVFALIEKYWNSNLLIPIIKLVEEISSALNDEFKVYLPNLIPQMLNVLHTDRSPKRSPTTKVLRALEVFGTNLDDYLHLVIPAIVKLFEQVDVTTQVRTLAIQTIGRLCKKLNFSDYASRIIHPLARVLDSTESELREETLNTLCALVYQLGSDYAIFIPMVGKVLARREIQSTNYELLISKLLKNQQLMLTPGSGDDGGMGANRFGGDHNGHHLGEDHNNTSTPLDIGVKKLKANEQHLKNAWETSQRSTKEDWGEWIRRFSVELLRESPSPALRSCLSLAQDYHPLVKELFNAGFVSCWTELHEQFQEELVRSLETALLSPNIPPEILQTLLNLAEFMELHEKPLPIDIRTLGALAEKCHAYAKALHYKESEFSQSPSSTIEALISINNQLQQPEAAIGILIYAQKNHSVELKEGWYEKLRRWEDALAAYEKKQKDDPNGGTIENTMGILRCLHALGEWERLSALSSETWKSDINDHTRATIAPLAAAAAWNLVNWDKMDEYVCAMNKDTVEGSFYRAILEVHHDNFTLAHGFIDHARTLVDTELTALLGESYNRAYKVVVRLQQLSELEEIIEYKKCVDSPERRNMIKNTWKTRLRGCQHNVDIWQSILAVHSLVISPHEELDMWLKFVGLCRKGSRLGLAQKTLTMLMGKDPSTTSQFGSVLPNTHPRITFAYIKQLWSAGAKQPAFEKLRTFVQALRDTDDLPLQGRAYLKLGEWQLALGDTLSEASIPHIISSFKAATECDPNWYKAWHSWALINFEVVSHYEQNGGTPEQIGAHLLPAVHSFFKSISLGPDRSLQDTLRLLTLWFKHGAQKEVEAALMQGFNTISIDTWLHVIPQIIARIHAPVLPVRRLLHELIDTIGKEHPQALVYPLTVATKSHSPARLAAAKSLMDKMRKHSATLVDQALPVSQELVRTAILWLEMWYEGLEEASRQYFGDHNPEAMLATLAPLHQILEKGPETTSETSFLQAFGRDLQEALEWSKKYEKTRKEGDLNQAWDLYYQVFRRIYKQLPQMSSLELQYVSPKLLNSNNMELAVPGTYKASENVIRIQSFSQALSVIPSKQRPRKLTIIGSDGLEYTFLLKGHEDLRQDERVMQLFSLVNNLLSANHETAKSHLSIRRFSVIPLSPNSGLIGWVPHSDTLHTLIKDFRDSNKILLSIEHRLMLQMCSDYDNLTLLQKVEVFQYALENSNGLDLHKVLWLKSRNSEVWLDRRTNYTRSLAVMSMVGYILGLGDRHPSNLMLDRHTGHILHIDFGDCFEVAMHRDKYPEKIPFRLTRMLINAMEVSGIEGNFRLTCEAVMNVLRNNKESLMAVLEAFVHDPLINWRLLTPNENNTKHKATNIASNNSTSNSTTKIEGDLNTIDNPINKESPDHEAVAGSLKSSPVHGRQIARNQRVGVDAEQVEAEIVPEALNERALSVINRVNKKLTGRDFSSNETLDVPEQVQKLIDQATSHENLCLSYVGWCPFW

B1: GFP-RacE_(T25N), GDP-bound, purified after chemoattractant stimulation (Ser192 phosphorylated) (natural protein)
chain: MSEDQGSGATRVKLVVVGDGAVGKNCLLICYAQNDFPVDYVPTVFENYTATRKRGNEDIKVHLWDTAGQEEYDRLRPLSYPGADVVLLCFSTISQSSYEAIRDKWAPEVNHYIPDVPSILVGTKIDLREQQHPDPNSGKFEPITADMGISMQKQIKAKKYLEVSAKTRQGLEEVFSAAIEIVLESRGMDKKSQDGSSSASGVPSGDKPTKGKAGKKKSGCIIL
modifications: phosphoserine at 192 (chemoattractant-induced)
- binding result: binds
